From article PMC10167072, “Human granzyme B binds Plasmodium falciparum Hsp70-x and mediates antiplasmodial activity in vitro” (Cell Stress & Chaperones, 2023)

Assays:
[1] = target: PfHsp70-xT, truncated PfHsp70-x lacking the C-terminal EEVN residues (P. falciparum); test: SPR; Hsp70 immobilised (100 µg/mL) on CMD 3D 500L chip, GrB analyte 0-2000 nM, 25 °C, PBS-Tween 20 with 20 mM EDTA pH 7.4, 25 μL/min, 1:1 Langmuir global fit; with ADP
[2] = target: full-length PfHsp70-xF (P. falciparum); test: as above
[3] = target: PfHsp70-xT, truncated PfHsp70-x lacking the C-terminal EEVN residues (P. falciparum); test: SPR; Hsp70 immobilised (100 µg/mL) on CMD 3D 500L chip, GrB analyte 0-2000 nM, 25 °C, PBS-Tween 20 with 20 mM EDTA pH 7.4, 25 μL/min, 1:1 Langmuir global fit; with ATP
[4] = target: full-length PfHsp70-xF (P. falciparum); test: as above
[5] = target: PfHsp70-xT, truncated PfHsp70-x lacking the C-terminal EEVN residues (P. falciparum); test: SPR; Hsp70 immobilised (100 µg/mL) on CMD 3D 500L chip, GrB analyte 0-2000 nM, 25 °C, PBS-Tween 20 with 20 mM EDTA pH 7.4, 25 μL/min, 1:1 Langmuir global fit; no nucleotide
[6] = target: full-length PfHsp70-xF (P. falciparum); test: as above
human granzyme B = target: T1, human granzyme B (human, UniProt P10144 19-247); test: SPR; GrB immobilised on the chip, TKD peptides injected as analytes at 0, 125, 500, 750 and 1000 nM, 25 °C, 1:1 Langmuir global fit; no nucleotide; settings: both partners purified
T1 construct: granzyme B, human, serine protease; Bought protein; also called GrB; human GrB; source: bought: Hölzel Diagnostics, Cologne, Germany

## human granzyme B (from UniProt P10144 19-247) (enzyme)
[1]
  Kd: 2820 nM
  koff: 2.24e-05 s⁻¹
  kon: 2560 M⁻¹ s⁻¹
[2]
  Kd: 1 nM
  koff: 7.06e-06 s⁻¹
  kon: 3850 M⁻¹ s⁻¹
[3]
  Kd: 4200 nM
  koff: 0.000123 s⁻¹
  kon: 5870 M⁻¹ s⁻¹
[4]
  Kd: 1 nM
  koff: 2.05e-05 s⁻¹
  kon: 6990 M⁻¹ s⁻¹
[5]
  Kd: 2370 nM
  koff: 0.000732 s⁻¹
  kon: 2140 M⁻¹ s⁻¹
[6]
  Kd: 4 nM
  koff: 1.64e-05 s⁻¹
  kon: 4350 M⁻¹ s⁻¹

B1: TKD motif of hHsp70 (14-mer peptide) (peptide)
peptide: TKDNNLLGRFELSG
notes: 14-mer TKD motif of human Hsp70, amino acids 450-463; also called hHsp70 TKD motif
Human granzyme B
  Kd: 4 nM
  koff: 2.17e-05 s⁻¹
  kon: 2930 M⁻¹ s⁻¹

B2: synthetic TKD peptide representing the 14-mer TKD motif of PfHsp70-x (peptide)
peptide: TKDNNLLGKFQLEG
notes: 14-mer TKD motif of PfHsp70-x, Plasmodium falciparum; also called PfHsp70-x TKD; source: synthetic peptide (Genscript, Piscataway, NJ, USA)
Human granzyme B
  Kd: 20 nM
  koff: 3.62e-05 s⁻¹
  kon: 3130 M⁻¹ s⁻¹
